Source: US20080044413A1

Molecular target: human EphA2 (human) (UniProt P29317)
Experiment: cell-based or functional assay

EC50 of redirected lysis, 51Cr release, A549, NK-depleted PBMC, E:T 10:1, 18 h [µg/mL]	EC50 of redirected lysis, 51Cr release, MDA MB231, NK-depleted PBMC, E:T 10:1, 18 h [µg/mL]	EC50 of redirected lysis, 51Cr release, MDA MB231, second experiment [µg/mL]	EC50 of redirected lysis, 51Cr release, A549 [µg/mL]	EC50 of redirected lysis, 51Cr release, A549, second experiment [µg/mL]	EC50 of redirected lysis, 51Cr release, MDA MB231 [µg/mL]	Binder
0.17	0.0538	0.086	–	–	–	EphA2-BiTE EA2 (VL/VH) × deimmunized anti-CD3 (VH/VL) (bispecific antibody, part only; not given: anti-CD3 scFv, part only) chain, part: DIKMTQSPSSMYASLGERVTITCKASQDINNYLSWFQQKPGKSPKTLIYRANRLVDGVPSRFSGSGSGQDYSLTISSLEYEDMGIYYCLKYDEFPYTFGGGTKLEIKGGGGSGGGGSGGGGSDVKLVESGGGLVKPGGSLKLSCAASGFTFSSYTMSWVRQTPEKRLEWVATISSGGTYTYYPDSVKGRFTISRDNAKNTLYLQMSSLKSEDTAMYYCTREAIFTYWGQGTLVTVSAGGGGSHHHHHH
–	–	0.0721	0.184	0.163	0.0559	EphA2-BiTE EA2 (VH/VL) × deimmunized anti-CD3 (VH/VL) (bispecific antibody, part only; not given: anti-CD3 scFv, part only) chain, part: DVKLVESGGGLVKPGGSLKLSCAASGFTFSSYTMSWVRQTPEKRLEWVATISSGGTYTYYPDSVKGRFTISRDNAKNTLYLQMSSLKSEDTAMYYCTREAIFTYWGQGTLVTVSAGGGGSGGGGSGGGGSDIKMTQSPSSMYASLGERVTITCKASQDINNYLSWFQQKPGKSPKTLIYRANRLVDGVPSRFSGSGSGQDYSLTISSLEYEDMGIYYCLKYDEFPYTFGGGTKLEIKGGGGSHHHHHH
